Our source for the binding signal values is patent US20200230168, “NUCLEIC ACID OLIGOMERS AND USES THEREFOR” (Queensland University of Technology, published 2020).

The target in data set [1] is T1, hSSB1 (Homo sapiens, UniProt Q9BQ15 Q9BQ15:1-211). Description: SPR; LSA_In3E3 = 1.
In data set [2] the target is T2, THOC4 (ALYREF) (UniProt Q86V81 Q86V81:2-257). Kind of data set: SPR; LSA_In3E3 = 1.
The target of data set [3] is T1, hSSB1. Kind of data set: SPR.
Data set [4] addresses T2, THOC4 (ALYREF). Kind of data set: SPR.

T1 sequence (Q9BQ15 whole entry, one chain of several): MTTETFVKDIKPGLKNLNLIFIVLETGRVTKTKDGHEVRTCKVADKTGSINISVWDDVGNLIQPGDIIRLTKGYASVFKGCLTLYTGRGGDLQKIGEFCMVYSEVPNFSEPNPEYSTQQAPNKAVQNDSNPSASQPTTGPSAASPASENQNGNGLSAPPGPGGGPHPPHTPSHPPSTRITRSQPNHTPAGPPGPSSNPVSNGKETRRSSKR

With CCAGUGAGCCGGACUUG (ssRNA, 2'-OMe all, PS all) [In3E3 3' truncation 17 nt], the binding signal amounted to 0.59 normalized Rmax with hSSB1 [1] and 0.69 normalized Rmax in the data set with THOC4 (ALYREF) [2]. For AGUGAGCCGGACUUGCCU (ssRNA, 2'-OMe all, PS all) [In3E3 5' truncation 18 nt] the same measures were 0.84 normalized Rmax and 0.84 normalized Rmax. For CGUGUCAUCCGCUCUCGACU (ssRNA, 2'-OMe all, PS all) [LSA_In3E3_CT4] the same measures were 0.8 normalized Rmax and 0.21 normalized Rmax. Turning to CUAGUAAGUCGGACUUGCCU (ssRNA, 2'-OMe all, full PS) [DKLS447399 (SEQ 63)], the binding signal with hSSB1 [3] and with THOC4 (ALYREF) [4] was 1.22 normalized Rmax each time. Regarding GUGAGCCGGACUUGCCU (ssRNA, 2'-OMe all, PS all) [In3E3 5' truncation 17 nt], the values for the binding signal with hSSB1 [1] and with THOC4 (ALYREF) [2] were 0.83 normalized Rmax and 0.23 normalized Rmax, respectively.

On to CCAGUGAGCCGAACUUCUCU (ssRNA, 2'-OMe all, full PS) [DKLS459014 (SEQ 62)], for which the binding signal worked out at 0.55 normalized Rmax with hSSB1 [3] and 0.26 normalized Rmax with THOC4 (ALYREF) [4]. With GUGCAUGGAAUCACGGAGUGGUGCAUGGAA (ssRNA, 2'-OMe all, PS all) [Open_A 30-mer (DKLS722361)], the binding signal with hSSB1 [1] turned out to be 4.08 normalized Rmax; in the data set with THOC4 (ALYREF) [2], 1.53 normalized Rmax. For CAGAGGCAGCAGUACGACGG (ssRNA, 2'-OMe all, PS all) [LSA_ATG] the same measures were 1.1 normalized Rmax and 0.96 normalized Rmax. For GUGAGCCGGACUUG (ssRNA, 2'-OMe all, PS all) [In3E3 both-end truncation 14 nt] the same measures were 0.45 normalized Rmax and 0.48 normalized Rmax. CCACUGAGCCCGACUUCCCU (ssRNA, 2'-OMe all, full PS) [DKLS459520 (SEQ 60)]: the values for the binding signal with hSSB1 [3] and with THOC4 (ALYREF) [4] were 0.63 normalized Rmax and 0.03 normalized Rmax, respectively. As to AGCCGGACUUGCCU (ssRNA, 2'-OMe all, PS all) [In3E3 5' truncation 14 nt], the binding signal is 0.3 normalized Rmax with hSSB1 [1] and 0.09 normalized Rmax with THOC4 (ALYREF) [2]. Take AGUGAGCCGGACUUGC (ssRNA, 2'-OMe all, PS all) [In3E3 both-end truncation 16 nt]: the binding signal with hSSB1 [1] is 0.71 normalized Rmax; in the data set with THOC4 (ALYREF) [2], 0.68 normalized Rmax. CCAGUGAGCCG (ssRNA, 2'-OMe all, full PS) [In3E3 3' truncation 11 nt]: the binding signal with hSSB1 [3] is 0.15 normalized Rmax; with THOC4 (ALYREF) [4] it was -0.03 normalized Rmax. CCAGUGAGCCGGACUU (ssRNA, 2'-OMe all, PS all) [In3E3 3' truncation 16 nt]: the binding signal is 0.4 normalized Rmax with hSSB1 [1] and 0.38 normalized Rmax with THOC4 (ALYREF) [2]. For CCAGUGAGCCGGACU (ssRNA, 2'-OMe all, PS all) [In3E3 3' truncation 15 nt] the same measures were 0.36 normalized Rmax and -0.09 normalized Rmax.

Take CUCAUUCCUACCGACACCCC (ssRNA, 2'-OMe all, phosphodiester, ZEN at both ends) [Neg_C ZEN (DKLS789189)]: the binding signal with hSSB1 [1] turned out to be 0.09 normalized Rmax; in the data set with THOC4 (ALYREF) [2] it was 0.03 normalized Rmax. For CAGAGGCAGCAGUACGACGG (ssRNA, PS all, no sugar modification) [LSA_ATG PS only (DKLS577569)] the same measures were 1.44 normalized Rmax and 1.03 normalized Rmax. For CCAGACAGCUGGUGUCGCCU (ssRNA, 2'-OMe all, PS all) [In3LSA_scr3_5] the same measures were 0.75 normalized Rmax and 0.43 normalized Rmax. For CAGUGAGCCGGACUUGCCU (ssRNA, 2'-OMe all, PS all) [In3E3 5' truncation 19 nt], the results for the binding signal with hSSB1 [1] and with THOC4 (ALYREF) [2] were 0.92 normalized Rmax and 0.87 normalized Rmax, respectively. In the case of GGACUUGCCU (ssRNA, 2'-OMe all, PS all) [In3E3 5' truncation 10 nt], the binding signal with hSSB1 [1] is 0.07 normalized Rmax; in the data set with THOC4 (ALYREF) [2], -0.01 normalized Rmax. For CCAGUGAGCCGGACUUGCCU (ssRNA, PS all, no sugar modification) [In3E3 PS only (DKLS426690)] the same measures were 0.99 normalized Rmax and 1.06 normalized Rmax. For AGCCGGAC (ssRNA, 2'-OMe all, PS all [2'-OMe at 1-8 (all); PS at all linkages]) [In3E3 both-end truncation 8 nt] the same measures were 0.07 normalized Rmax and -0.07 normalized Rmax. As for UACCGCGUGCGACCCUCU (ssRNA, 2'-OMe all, full PS) [DKLS784557 (SEQ 10)], the values for the binding signal with hSSB1 [3] and with THOC4 (ALYREF) [4] were 0.69 normalized Rmax and 0.49 normalized Rmax, respectively.

Turning to CAGAGGCAGCAGUACGACGGCAGAGGCAGC (ssRNA, 2'-OMe all, PS all) [LSA_ATG 30-mer (DKLS428543)], the binding signal is 1.89 normalized Rmax with hSSB1 [1] and 1.21 normalized Rmax in the data set with THOC4 (ALYREF) [2].

Regarding GGAGGGAGUCGGACUUGUCU (ssRNA, 2'-OMe all, full PS) [DKLS444294 (SEQ 65)], the binding signal with hSSB1 [3] stood at 1.58 normalized Rmax; in the data set with THOC4 (ALYREF) [4] it was 1.78 normalized Rmax.

CCGGACUUGCCU (ssRNA, 2'-OMe all, PS all) [In3E3 5' truncation 12 nt]: the binding signal was determined as 0.13 normalized Rmax with hSSB1 [1] and 0.07 normalized Rmax with THOC4 (ALYREF) [2].

For CCAGUGAGCCGGACUUGCC (ssRNA, 2'-OMe all, PS all) [In3E3 3' truncation 19 nt], the binding signal with hSSB1 [1] stood at 0.68 normalized Rmax; in the data set with THOC4 (ALYREF) [2], 0.9 normalized Rmax. For CCAGUGAGCUGGACUUGCCU (ssRNA, 2'-OMe all, PS all) [In3LSA_CU] the same measures were 0.97 normalized Rmax and 0.54 normalized Rmax. For GAGCCGGACUUGCCU (ssRNA, 2'-OMe all, PS all) [In3E3 5' truncation 15 nt] the same measures were 0.4 normalized Rmax and 0.45 normalized Rmax. Take CAGAGGCAGCAGUACGACGG (ssRNA, 2'-OMe all, PS three at each end) [LSA_ATG 2'-OMe PS ends (DKLS286198)]: the binding signal in the data set with hSSB1 [1] was determined as 0.17 normalized Rmax. CCAGUGAGCC (ssRNA, 2'-OMe all, PS all) [In3E3 3' truncation 10 nt]: the binding signal with hSSB1 [1] was 0.11 normalized Rmax; in the data set with THOC4 (ALYREF) [2], -0.01 normalized Rmax. For CCAGUGAGCCGG (ssRNA, 2'-OMe all, PS all) [In3E3 3' truncation 12 nt] the same measures were 0.24 normalized Rmax and 0 normalized Rmax.

Consider CCAGUGAGCCGGA (ssRNA, 2'-OMe all, PS all) [In3E3 3' truncation 13 nt], for which the binding signal in the data set with hSSB1 [1] stood at 0.53 normalized Rmax; with THOC4 (ALYREF) [2], 0.08 normalized Rmax.

On to CCAGGGAGCCGGACUUGGCG (ssRNA, 2'-OMe all, full PS) [DKLS712428 (SEQ 64)], for which the binding signal amounted to 0.7 normalized Rmax with hSSB1 [3] and 0.51 normalized Rmax with THOC4 (ALYREF) [4].

Turning to CCAGUGAGCCGGACUUGC (ssRNA, 2'-OMe all, PS all) [In3E3 3' truncation 18 nt], the binding signal worked out at 0.67 normalized Rmax with hSSB1 [1] and 0.87 normalized Rmax with THOC4 (ALYREF) [2]. For the molecule CUCAUUCCUACCGACACCCC (ssRNA, 2'-OMe all, phosphodiester) [Neg_C 2'-OMe PD (DKLS341370)], the binding signal with hSSB1 [1] was determined as 0.37 normalized Rmax; in the data set with THOC4 (ALYREF) [2] it was 0.08 normalized Rmax. CCAGUGAGCCGGACUUGCCU (ssRNA, 2'-OMe all, PS three at each end) [In3E3 2'-OMe PS ends (DKLS621499)] yielded a binding signal with hSSB1 [1] of 0.12 normalized Rmax. Turning to UGAGCCGGACUU (ssRNA, 2'-OMe all, PS all) [In3E3 both-end truncation 12 nt], the binding signal with hSSB1 [1] turned out to be 0.2 normalized Rmax; with THOC4 (ALYREF) [2], 0.08 normalized Rmax. As for GUGCAUGGAAUCACGGAGUG (ssRNA, PS all, no sugar modification) [Open_A PS only (DKLS669778)], the binding signal with hSSB1 [1] came out at 1.3 normalized Rmax; with THOC4 (ALYREF) [2], 0.76 normalized Rmax. For AGGCAAGUCCGGCUCACUGG (ssRNA, 2'-OMe all, PS all) [RevIn3LSA (DKLS481254)], the binding signal is 0.82 normalized Rmax in the data set with hSSB1 [1] and 0.76 normalized Rmax with THOC4 (ALYREF) [2].

Regarding CCAGUAAGCCAGACUUGCAU (ssRNA, 2'-OMe all, full PS) [DKLS399970 (SEQ 61)], the binding signal with hSSB1 [3] worked out at 0.64 normalized Rmax; in the data set with THOC4 (ALYREF) [4], 0.3 normalized Rmax. In the case of CAGUGAGCCGGACUUGCC (ssRNA, 2'-OMe all, PS all) [In3E3 both-end truncation 18 nt], the binding signal in the data set with hSSB1 [1] was 0.91 normalized Rmax; with THOC4 (ALYREF) [2] it was 0.96 normalized Rmax.

As to CCAGUGAGCCGGACUUGCCU (ssRNA, 2'-OMe all, phosphodiester, ZEN at both ends) [In3E3 ZEN (DKLS991101)], in the data set with hSSB1 [1], the binding signal is 0.17 normalized Rmax. CCAGUGAGCCGGAC (ssRNA, 2'-OMe all, PS all) [In3E3 3' truncation 14 nt]: the binding signal with hSSB1 [1] amounted to 0.35 normalized Rmax; with THOC4 (ALYREF) [2] it was 0.08 normalized Rmax.

Take CCUGUCAGCCGCACUUGCCU (ssRNA, 2'-OMe all, full PS) [DKLS463357 (SEQ 59)]: the binding signal was 0.95 normalized Rmax with hSSB1 [3] and 0.39 normalized Rmax in the data set with THOC4 (ALYREF) [4]. Consider CCGGUGAGCGACACUAGGCU (ssRNA, 2'-OMe all, PS all) [In3LSA_scr3_4], for which the binding signal in the data set with hSSB1 [1] worked out at 0.77 normalized Rmax; in the data set with THOC4 (ALYREF) [2], 0.66 normalized Rmax. On to GCGGUGAACCGGAGUUGGCU (ssRNA, 2'-OMe all, full PS) [DKLS438994 (SEQ 66)], for which the binding signal is 1.03 normalized Rmax in the data set with hSSB1 [3] and 1.11 normalized Rmax with THOC4 (ALYREF) [4].

Take CCAGUGAG (ssRNA, 2'-OMe all, PS all [2'-OMe at 1-8 (all); PS at all linkages]) [In3E3 3' truncation 8 nt]: the binding signal with hSSB1 [1] is 0.09 normalized Rmax; in the data set with THOC4 (ALYREF) [2] it was -0.05 normalized Rmax. Take CCUGUGUGCCCCUCUUCCCU (ssRNA, 2'-OMe all, full PS) [DKLS374580 (SEQ 58)]: the binding signal stood at 0.68 normalized Rmax in the data set with hSSB1 [3] and 0.12 normalized Rmax in the data set with THOC4 (ALYREF) [4].

On to UGAGCCGGACUUGCCU (ssRNA, 2'-OMe all, PS all) [In3E3 5' truncation 16 nt], for which the binding signal was 0.48 normalized Rmax in the data set with hSSB1 [1] and 0.24 normalized Rmax in the data set with THOC4 (ALYREF) [2].
